{"source": "paper PMC5736413", "about": "(Journal of immunology (Baltimore, Md. : 1950), 2017)", "biological_target": "recombinant mouse Factor H (mouse, UniProt P06909 19-1234)", "sequence (P06909 19-1234)": "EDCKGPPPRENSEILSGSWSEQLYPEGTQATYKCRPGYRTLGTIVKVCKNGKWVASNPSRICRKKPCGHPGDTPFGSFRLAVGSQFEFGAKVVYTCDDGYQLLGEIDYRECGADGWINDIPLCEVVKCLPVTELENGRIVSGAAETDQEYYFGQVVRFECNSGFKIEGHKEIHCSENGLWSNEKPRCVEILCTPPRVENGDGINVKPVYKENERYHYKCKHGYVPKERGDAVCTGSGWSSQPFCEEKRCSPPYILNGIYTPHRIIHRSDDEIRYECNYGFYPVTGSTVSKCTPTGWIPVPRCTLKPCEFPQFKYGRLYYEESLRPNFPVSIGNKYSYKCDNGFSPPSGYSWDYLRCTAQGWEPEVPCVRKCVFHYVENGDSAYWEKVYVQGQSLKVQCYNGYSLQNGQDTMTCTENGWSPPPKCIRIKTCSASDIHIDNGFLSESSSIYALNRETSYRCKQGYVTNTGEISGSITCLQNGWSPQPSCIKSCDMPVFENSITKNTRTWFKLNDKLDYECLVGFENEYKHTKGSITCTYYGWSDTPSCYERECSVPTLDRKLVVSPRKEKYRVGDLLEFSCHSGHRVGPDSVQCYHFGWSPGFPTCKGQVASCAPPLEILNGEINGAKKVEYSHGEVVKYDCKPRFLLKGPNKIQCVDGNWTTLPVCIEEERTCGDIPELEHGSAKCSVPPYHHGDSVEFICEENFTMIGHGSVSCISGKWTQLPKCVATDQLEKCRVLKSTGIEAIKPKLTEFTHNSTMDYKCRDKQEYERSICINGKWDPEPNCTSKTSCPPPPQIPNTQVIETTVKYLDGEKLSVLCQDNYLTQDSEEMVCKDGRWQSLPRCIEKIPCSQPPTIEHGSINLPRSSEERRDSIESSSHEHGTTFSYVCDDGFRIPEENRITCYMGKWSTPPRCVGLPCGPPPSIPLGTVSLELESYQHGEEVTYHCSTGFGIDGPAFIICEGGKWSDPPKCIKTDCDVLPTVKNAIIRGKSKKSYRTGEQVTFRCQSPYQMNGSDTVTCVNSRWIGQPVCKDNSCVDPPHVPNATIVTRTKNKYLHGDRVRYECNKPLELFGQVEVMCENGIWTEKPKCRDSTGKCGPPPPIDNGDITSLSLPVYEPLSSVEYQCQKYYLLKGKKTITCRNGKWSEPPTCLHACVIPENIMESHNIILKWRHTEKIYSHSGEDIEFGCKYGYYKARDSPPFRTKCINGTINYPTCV", "assay": "SPR"}
{"binder": "recombinant mouse C3d (C1010A) (domain or fragment) not shown", "values": [{"measurement": "Kd", "result": 3.85, "unit": "µM"}]}
